Experimental data as given in the supplement of paper PMC7125110.
± gives the standard error. This sample holds only a part of the variants without activity.

B1: glmS ribozyme (parent)
chain: AUAAAAGCGCCAGAACUACAGAAAUGUAGUUGACGAGGAGGAGGUUUAUCGAAUUUUCGGCGGAUGCCUCCAAA

Assays:
Details in all cases: with glucosamine-6-phosphate
[1] = variants of: B1; assay: self-cleavage kobs at 40 uM GlcN6P; higher = faster cleavage; RNA array
Procedure, shortened: (§1)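 In situ transcription by E. coli RNA polymerase produced barcoded ribozyme variants on sequenced MiSeq chips, and a hybridised Cy3 probe tracked them at 37 °C. Glucosamine-6-phosphate was flowed in at 40 μM to 10 mM in HEPES/KCl/Mg(OAc)2 buffer. kcat and KM were taken from weighted Michaelis–Menten fits of kobs values from exponential decay fits.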

[2] = variants of: B1; assay: self-cleavage kobs at 160 uM GlcN6P; higher = faster cleavage; RNA array
Procedure, shortened: as §1

[3] = variants of: B1; assay: self-cleavage kobs at 640 uM GlcN6P; higher = faster cleavage; RNA array
Procedure, shortened: as §1

[4] = variants of: B1; assay: self-cleavage kobs at 10000 uM GlcN6P; higher = faster cleavage; RNA array
Procedure, shortened: as §1

[5] = variants of: B1; assay: self-cleavage kobs at 2500 uM GlcN6P; higher = faster cleavage; RNA array
Procedure, shortened: as §1

A6U C16U U30C
self-cleavage kobs at 40 uM GlcN6P [1]: < 1e-05 s⁻¹

A6U G44C C50A
self-cleavage kobs at 40 uM GlcN6P [1]: < 1e-05 s⁻¹

A6U G35A
self-cleavage kobs at 40 uM GlcN6P [1]: < 1e-05 s⁻¹ | self-cleavage kobs at 160 uM GlcN6P [2]: < 1e-05 s⁻¹ | self-cleavage kobs at 640 uM GlcN6P [3]: < 1e-05 s⁻¹

A6U G13C U69C
self-cleavage kobs at 40 uM GlcN6P [1]: < 1e-05 s⁻¹ | self-cleavage kobs at 10000 uM GlcN6P [4]: < 1e-05 s⁻¹

G7A G41U A42G A52G
self-cleavage kobs at 40 uM GlcN6P [1]: < 1e-05 s⁻¹ | self-cleavage kobs at 10000 uM GlcN6P [4]: < 1e-05 s⁻¹

G7C A39U
self-cleavage kobs at 40 uM GlcN6P [1]: < 1e-05 s⁻¹ | self-cleavage kobs at 640 uM GlcN6P [3]: < 1e-05 s⁻¹ | self-cleavage kobs at 10000 uM GlcN6P [4]: < 1e-05 s⁻¹

G7C A39G
self-cleavage kobs at 40 uM GlcN6P [1]: < 1e-05 s⁻¹ | self-cleavage kobs at 160 uM GlcN6P [2]: < 1e-05 s⁻¹ | self-cleavage kobs at 640 uM GlcN6P [3]: < 1e-05 s⁻¹ | self-cleavage kobs at 2500 uM GlcN6P [5]: < 1e-05 s⁻¹ | self-cleavage kobs at 10000 uM GlcN6P [4]: < 1e-05 s⁻¹

G7C A39C
self-cleavage kobs at 40 uM GlcN6P [1]: < 1e-05 s⁻¹ | self-cleavage kobs at 160 uM GlcN6P [2]: < 1e-05 s⁻¹ | self-cleavage kobs at 10000 uM GlcN6P [4]: < 1e-05 s⁻¹

G7C C58U
self-cleavage kobs at 40 uM GlcN6P [1]: < 1e-05 s⁻¹ | self-cleavage kobs at 2500 uM GlcN6P [5]: < 1e-05 s⁻¹ | self-cleavage kobs at 10000 uM GlcN6P [4]: < 1e-05 s⁻¹

G7A G44C A48U C68U
self-cleavage kobs at 40 uM GlcN6P [1]: < 1e-05 s⁻¹ | self-cleavage kobs at 10000 uM GlcN6P [4]: < 1e-05 s⁻¹

G7A U30G U45G C67G C68A
self-cleavage kobs at 40 uM GlcN6P [1]: 0.000126 ± 4e-05 s⁻¹ | self-cleavage kobs at 10000 uM GlcN6P [4]: 0.00014 ± 3.6e-05 s⁻¹

G7A U47A
self-cleavage kobs at 40 uM GlcN6P [1]: < 1e-05 s⁻¹ | self-cleavage kobs at 160 uM GlcN6P [2]: < 1e-05 s⁻¹

G7C G32A
self-cleavage kobs at 40 uM GlcN6P [1]: < 1e-05 s⁻¹ | self-cleavage kobs at 160 uM GlcN6P [2]: < 1e-05 s⁻¹ | self-cleavage kobs at 10000 uM GlcN6P [4]: < 1e-05 s⁻¹

G7A U46C
self-cleavage kobs at 40 uM GlcN6P [1]: < 1e-05 s⁻¹ | self-cleavage kobs at 640 uM GlcN6P [3]: < 1e-05 s⁻¹ | self-cleavage kobs at 10000 uM GlcN6P [4]: < 1e-05 s⁻¹

G7A U57G C61A
self-cleavage kobs at 40 uM GlcN6P [1]: < 1e-05 s⁻¹

G7C C8U A39U A53U
self-cleavage kobs at 40 uM GlcN6P [1]: < 1e-05 s⁻¹ | self-cleavage kobs at 10000 uM GlcN6P [4]: < 1e-05 s⁻¹

G7C C68A
self-cleavage kobs at 40 uM GlcN6P [1]: < 1e-05 s⁻¹ | self-cleavage kobs at 160 uM GlcN6P [2]: < 1e-05 s⁻¹ | self-cleavage kobs at 2500 uM GlcN6P [5]: < 1e-05 s⁻¹ | self-cleavage kobs at 10000 uM GlcN6P [4]: < 1e-05 s⁻¹

G7C A42C C61U
self-cleavage kobs at 40 uM GlcN6P [1]: < 1e-05 s⁻¹

A6U U55G G62C C70A
self-cleavage kobs at 40 uM GlcN6P [1]: < 1e-05 s⁻¹

G7A G41C
self-cleavage kobs at 40 uM GlcN6P [1]: < 1e-05 s⁻¹ | self-cleavage kobs at 160 uM GlcN6P [2]: < 1e-05 s⁻¹ | self-cleavage kobs at 640 uM GlcN6P [3]: < 1e-05 s⁻¹ | self-cleavage kobs at 2500 uM GlcN6P [5]: < 1e-05 s⁻¹

G7A C11G A12U A42C G44A G51C A53U C71U
self-cleavage kobs at 40 uM GlcN6P [1]: < 1e-05 s⁻¹ | self-cleavage kobs at 10000 uM GlcN6P [4]: < 1e-05 s⁻¹

G7C C16G A52G
self-cleavage kobs at 40 uM GlcN6P [1]: < 1e-05 s⁻¹ | self-cleavage kobs at 640 uM GlcN6P [3]: < 1e-05 s⁻¹ | self-cleavage kobs at 10000 uM GlcN6P [4]: < 1e-05 s⁻¹

A6U G7C
self-cleavage kobs at 40 uM GlcN6P [1]: < 1e-05 s⁻¹ | self-cleavage kobs at 640 uM GlcN6P [3]: < 1e-05 s⁻¹ | self-cleavage kobs at 2500 uM GlcN6P [5]: < 1e-05 s⁻¹ | self-cleavage kobs at 10000 uM GlcN6P [4]: < 1e-05 s⁻¹

G7A G62C
self-cleavage kobs at 40 uM GlcN6P [1]: < 1e-05 s⁻¹ | self-cleavage kobs at 160 uM GlcN6P [2]: < 1e-05 s⁻¹ | self-cleavage kobs at 640 uM GlcN6P [3]: < 1e-05 s⁻¹ | self-cleavage kobs at 2500 uM GlcN6P [5]: < 1e-05 s⁻¹
